Key:
[1] = molecular target: GKL (quorum-quenching lactonase from Geobacillus kaustophilus) (Geobacillus kaustophilus, UniProt Q5KZU5, E101G/R230C/D266N)
[2] = test system: CCCCCC(=O)CC(=O)N[C@H]1CCOC1=O; assay: purified protein; settings: pH 8.3; 37.0 °C
[3] = test system: CCCC(=O)CC(=O)N[C@H]1CCOC1=O; assay: purified protein; settings: pH 8.3; 37.0 °C

Molecule | X-ray crystal structure, 2.2 Å [1] | Km [2] [mM] | kcat/Km [2] [M⁻¹ s⁻¹] | Km [3] [mM] | kcat/Km [3] [M⁻¹ s⁻¹]
CCCC(=O)NC1CCOC1=O (racemic) [C4-HSL, N-butyryl-L-homoserine lactone] | its catalytically inactive variant E101G/R230C/D266N with the quorum-molecule C4-HSL bound in the active site | – | – | – | –
GKL (quorum-quenching lactonase from Geobacillus kaustophilus) (Geobacillus kaustophilus HTA426) | – | 5.5 ± 2.1 | 38 | – | –
GKL (quorum-quenching lactonase from Geobacillus kaustophilus) (Geobacillus kaustophilus HTA426; E101G/R230C) | – | 3.0 ± 0.4 | 700 | 22 ± 12 | 50
GKL (quorum-quenching lactonase from Geobacillus kaustophilus) (Geobacillus kaustophilus HTA426; E101N) | – | 4.0 ± 3.2 | 53 | – | –

From publication PMC3629905 (Biochemistry, 2013)
